# Substitutions are numbered along the chain they refer to.
# T1: human C2 I320A (human, UniProt P06681 21-752)
# T1 sequence: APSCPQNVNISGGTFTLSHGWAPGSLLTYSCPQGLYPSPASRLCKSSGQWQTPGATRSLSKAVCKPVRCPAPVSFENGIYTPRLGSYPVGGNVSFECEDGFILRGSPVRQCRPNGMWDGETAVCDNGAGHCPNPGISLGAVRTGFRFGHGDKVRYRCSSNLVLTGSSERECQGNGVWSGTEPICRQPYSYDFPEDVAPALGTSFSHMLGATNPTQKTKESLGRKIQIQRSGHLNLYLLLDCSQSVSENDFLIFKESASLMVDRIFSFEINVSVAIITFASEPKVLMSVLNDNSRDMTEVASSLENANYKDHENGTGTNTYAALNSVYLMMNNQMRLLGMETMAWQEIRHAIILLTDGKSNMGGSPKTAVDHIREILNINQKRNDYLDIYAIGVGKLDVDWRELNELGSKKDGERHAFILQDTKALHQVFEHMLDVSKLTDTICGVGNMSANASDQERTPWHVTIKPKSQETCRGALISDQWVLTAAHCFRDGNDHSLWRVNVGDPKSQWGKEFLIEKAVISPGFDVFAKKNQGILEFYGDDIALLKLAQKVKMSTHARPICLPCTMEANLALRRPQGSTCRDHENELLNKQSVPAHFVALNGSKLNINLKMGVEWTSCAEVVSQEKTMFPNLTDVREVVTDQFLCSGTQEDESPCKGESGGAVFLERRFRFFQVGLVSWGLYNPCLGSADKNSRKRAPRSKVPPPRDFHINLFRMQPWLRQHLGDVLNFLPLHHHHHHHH
# T2: human C2 A470S (human, UniProt P06681 21-752)
# T2 sequence: T1 sequence with A300I, A450S
# T3: human C2 R434A (human, UniProt P06681 21-752)
# T3 sequence: T1 sequence with A300I, R414A
# T4: human C2 D431A (human, UniProt P06681 21-752)
# T4 sequence: T1 sequence with A300I, D411A
# B1: RF16-242 (antibody, human IgG4 S228P, lambda, V domains shown)
# VH: EVQLLQSGAEVKKPGESLKISCKGSGYSFTSYWIGWVRQMPGKGLEWMGIIYPGDSDTRYSPSFQGQVTISADKSISTAYLQWSSLKASDTAMYYCARRGHYGDYFDYWGQGTLVTVSS
# VL: SYELTQPPSVSVSPGQTARITCSGDALPKKYAYWYHQKSGQAPVLVIYEDRRRPSEIPERFSGSSSGTMATLTITGAQVEDEGVYFCYSRDRAGNQRVFGGGTQLTVLG
# notes: pH-dependent anti-C2 antibody from a phage display library
# Columns and labels:
# Assay in all cases: SPR, antibody captured, C2 as analyte;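 note: biacore at 37 °C, anti-C2 mAbs held by immobilised goat anti-human IgG, C2 alanine or serine mutants injected, double-referenced sensorgrams fitted to a 1:1 kinetic or steady-state model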
# human C2 I320A = biological target: T1, human C2 I320A
# human C2 A470S = biological target: T2, human C2 A470S
# human C2 R434A = biological target: T3, human C2 R434A
# human C2 D431A = biological target: T4, human C2 D431A
binder,measurement,setting,value
B1,Kd,human C2 I320A,73.5 nM
same,Kd,human C2 A470S,5 nM
same,Kd,human C2 R434A,98.9 nM
same,Kd,human C2 D431A,22.9 nM

# Source: US20220332804A1 (CSL INNOVATION, published 2022)
